Test results as given in the supplement of paper PMC10567573.
± gives the standard deviation.

Assay: protein stability index of a GFP-peptide fusion (GPS, HEK-293T) (PSI 1-6); higher = more stable
[1] = treatment: DMSO, c terminus: a fixed tail appended
[2] = treatment: MLN4924 1 uM, 8 h, c terminus: a fixed tail appended
[3] = treatment: DMSO, c terminus: native
[4] = treatment: MLN4924 1 uM, 8 h, c terminus: native
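Note: 24-mer peptide tiles fused after GFP, lentivirally expressed, FACS-sorted into six equal bins by GFP/DsRed ratio, decoded by Illumina sequencing, PSI is the read-weighted mean bin number.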

LSLYQLSLERGTALFAQVQRGALP [RSAD1]
protein stability index [1]: 2.23 ± 0.36
protein stability index [2]: 2.32 ± 0.44

LSSVEAYNIRTDSWTTVTSMTTPR [KLHL12]
protein stability index [1]: 2.79 ± 0.31
protein stability index [2]: 3.23 ± 0.37

LTAFICFLVFILNAGLVWFFPWRE [MFSD9]
protein stability index [1]: 2.23 ± 0.42
protein stability index [2]: 2.11 ± 0.51

LTERLKVLEAKMTMLTVIEQPVPP [EMID1]
protein stability index [1]: 3.09 ± 0.46
protein stability index [2]: 3.32 ± 0.16

LTLQVYREQADSCREQLDIMNDLS [TRIM14]
protein stability index [1]: 2.99 ± 0.24
protein stability index [2]: 2.95 ± 0.1

LTVVSFYQVAALQGDLASLRAELQ [TNFSF13B]
protein stability index [1]: 2.77 ± 0.7
protein stability index [2]: 2.63 ± 0.68

LVLAIPLLLILVSYVHILSAILQF [OR10K2]
protein stability index [1]: 3.37 ± 0.14
protein stability index [2]: 3.17 ± 0.28

LVQVTLLDTVELATYCVRTFALYK [PTPRD]
protein stability index [1]: 3.1 ± 0.49
protein stability index [2]: 2.97 ± 0.81

LWEKVMPSRYAAIYNGGVEAVSTL [SLC19A2]
protein stability index [1]: 2.19 ± 0.22
protein stability index [2]: 2.07 ± 0.29

LWFYNTSLKFFLNKPMLADVVFEI [RHOBTB3]
protein stability index [1]: 2.82 ± 0.32
protein stability index [2]: 3.04 ± 1.1

LYELASLKRAFEAANLPALVLKIM [NEK8]
protein stability index [1]: 2.33 ± 0.36
protein stability index [2]: 2.12 ± 0.34

LYLVGFLDLFGVSMVVPLLSLHVK [MFSD9]
protein stability index [1]: 3.61 ± 0.17
protein stability index [2]: 3.19 ± 0.33

LYRQHQAQIDQYVGLVTNQLSHIK [RTN2]
protein stability index [1]: 2.08 ± 0.34
protein stability index [2]: 2.05 ± 0.4

LYTPSNEHFGIVPLEAMYMQCPVI [ALG2]
protein stability index [1]: 2.28 ± 0.098
protein stability index [2]: 2.39 ± 0.35

MAAMFNGNYMEAKSVLIPVYGVSK [RHOBTB3]
protein stability index [1]: 2.27 ± 0.35
protein stability index [2]: 2.12 ± 0.33

MADQDPAGISPLQQMVASGTGAVV [SLC25A39]
protein stability index [1]: 4.52 ± 0.22
protein stability index [2]: 4.42 ± 0.13

MAEAEGVPTTPGPASGSTFRGRRD [RETREG3]
protein stability index [1]: 5.12 ± 0.39
protein stability index [2]: 5.22 ± 0.14

MAGGKAGKDSGKAKAKAVSRSQRA [H2AZ2]
protein stability index [1]: 4.73 ± 0.24
protein stability index [2]: 5.03 ± 0.25

MAGTNALLMLENFIDGKFLPCSSY [ALDH8A1]
protein stability index [1]: 2.19 ± 0.35
protein stability index [2]: 2.12 ± 0.26

MAHSKTRTNDGKITYPPGVKEISD [PDS5B]
protein stability index [1]: 4.59 ± 0.17
protein stability index [2]: 4.61 ± 0.21

MALQLGRLSSGPCWLVARGGCGGP [CPOX]
protein stability index [1]: 2.36 ± 0.38
protein stability index [2]: 2.44 ± 0.38

MDGSGEQPRGGVSSRIEQGEWGGR
protein stability index [1]: 4.58 ± 0.43
protein stability index [2]: 4.58 ± 0.17

MDRKTRFIIHGFIDKGDESWVTDM [PNLIPRP1]
protein stability index [1]: 2.48 ± 0.66
protein stability index [2]: 2.51 ± 0.19

MDTQFTIRARELQNIYKCIMLKNI [IQUB]
protein stability index [1]: 2.27 ± 0.24
protein stability index [2]: 2.37 ± 0.3

MEEVCGGEKPYLSPDILEEKHCEF [ATL3]
protein stability index [1]: 5.15 ± 0.29
protein stability index [2]: 5.01 ± 0.14

MEEVISPRQVSYTPQHHEKQYAMQ [IQUB]
protein stability index [1]: 4.38 ± 0.15
protein stability index [2]: 4.31 ± 0.29

MENNHTVAITILQDDHDHKVQELM [MTUS2]
protein stability index [1]: 4.42 ± 0.26
protein stability index [2]: 4.34 ± 0.098

MEPATAPRPDMAPELTPEEEQATK [PTPN9]
protein stability index [1]: 5.71 ± 0.097
protein stability index [2]: 5.08 ± 0.48

MFSVLSYGRLVARAVLGGLSQTDP [PPTC7]
protein stability index [1]: 2.01 ± 0.74
protein stability index [2]: 2.85 ± 1.3

MHTNYLSACSFTNSDMQILTASGD [GNB5]
protein stability index [1]: 2.99 ± 0.22
protein stability index [2]: 3.27 ± 0.26

MLFFLPPGQHLSDYSQLNESTTKE [FBXO34]
protein stability index [1]: 2.6 ± 0.25
protein stability index [2]: 2.61 ± 0.24

MLRQLLLAALCLAGPPAPARACQL [CCDC3]
protein stability index [1]: 3.47 ± 0.045
protein stability index [2]: 2.76 ± 1.1

MPDTFNSRSPSVEGSLWAVGTESQ [PXN]
protein stability index [1]: 4.31 ± 0.16
protein stability index [2]: 4.38 ± 0.12

MQPTLLLSLLGAVGLAAVNSMPVD [CHGB]
protein stability index [1]: 2.85 ± 0.68
protein stability index [2]: 2.94 ± 0.69

MSAALFSLDGPARGAPWPAEPAPF [CEBPD]
protein stability index [1]: 2.95 ± 0.14
protein stability index [2]: 3.21 ± 0.18

MSLRLQSSSASYGGGFGGGSCQLG [KRT13]
protein stability index [1]: 2.54 ± 0.11
protein stability index [2]: 2.49 ± 0.11

MTLAYDNGINLFDTAEVYAAGKAE [KCNAB2]
protein stability index [1]: 3.54 ± 0.29
protein stability index [2]: 3.8 ± 0.34

MTTSIRQFTSSSSIKGSSGLGGGS [KRT17]
protein stability index [1]: 3.58 ± 0.11
protein stability index [2]: 3.39 ± 0.43

MWLLVSVILISRISSVGGEAMFCD [CFHR2]
protein stability index [1]: 3.35 ± 0.25
protein stability index [2]: 3.08 ± 0.52

NAGSYIPSYTSWYPSAHQEAMQQP [DLX1]
protein stability index [1]: 2.76 ± 0.16
protein stability index [2]: 2.84 ± 0.32

NAKTEQGPTGVTMTSNPITWGQIK [CDK11A]
protein stability index [1]: 4.19 ± 0.16
protein stability index [2]: 4.12 ± 0.24

NALLSKRLLALTSSDLGCQPSRT [TMEM192]
protein stability index [3]: 2.52 ± 0.72
protein stability index [4]: 2.61 ± 0.3

NATWLVNSAAHLFGYRPYDKNISP [SCD]
protein stability index [1]: 2.4 ± 0.19
protein stability index [2]: 2.34 ± 0.41

NCLGIRAFADTHSCRELLRIADKF [KLHL20]
protein stability index [1]: 2.3 ± 0.36
protein stability index [2]: 2.2 ± 0.18

NDKMAEYTNSAGVPSLNAALMHTL [GOSR1]
protein stability index [1]: 3.44 ± 0.32
protein stability index [2]: 3.42 ± 0.23

NDLWPTMENLLQATKSHVDKVIMK [DYNC2LI1]
protein stability index [1]: 3.23 ± 0.25
protein stability index [2]: 3.31 ± 0.32

NDNSPSFATPEREMRISESAASGA [PCDHGC5]
protein stability index [1]: 5.21 ± 0.17
protein stability index [2]: 5.22 ± 0.089

NESWIKSHFSRLSEEKLALDNNAS [C10orf62]
protein stability index [1]: 4.11 ± 0.14
protein stability index [2]: 4.29 ± 0.24

NGTYAGPAPAFQPFFFTGAFPFNM [ANKRD40]
protein stability index [1]: 2.32 ± 1.2
protein stability index [2]: 2.51 ± 0.5

NILFYVVGLRNTLTRIRKWIEHSK [GLT8D2]
protein stability index [1]: 2.59 ± 0.18
protein stability index [2]: 2.76 ± 0.46

NILVTSGGTVKLADFGLARIYSYQ [CDK4]
protein stability index [1]: 2.45 ± 0.81
protein stability index [2]: 2.13 ± 0.37

NIRQKVKELVEFAQDDDRLREERK [CLINT1]
protein stability index [1]: 4.55 ± 0.17
protein stability index [2]: 5.01 ± 0.19

NKTGVSPYSKTLVLQTSEGKALQQ [TRIM9]
protein stability index [1]: 4.19 ± 0.14
protein stability index [2]: 4.22 ± 0.073

NLPFWVKEKANSLKNEIQEVEELD [SPATS1]
protein stability index [1]: 4.7 ± 0.32
protein stability index [2]: 4.82 ± 0.083

NMEKYNFLGISIVGQSNERGDGGI [DVL3]
protein stability index [1]: 3.18 ± 0.28
protein stability index [2]: 3.16 ± 0.82

NQEDAIHFHRTLKEACDQHGPDLY [CPOX]
protein stability index [1]: 4.33 ± 0.21
protein stability index [2]: 4.47 ± 0.15

NQMDKARRHPQGAWKELDRNYLNY [CHGB]
protein stability index [1]: 2.77 ± 0.32
protein stability index [2]: 2.84 ± 0.19

NSDPEVVNVDNLLAAAVVQEHSNS [C18orf25]
protein stability index [1]: 5.19 ± 0.35
protein stability index [2]: 5.33 ± 0.2

NSLQSYQLSPNKHFSLRVQSRANG [PCDHGA10]
protein stability index [1]: 3.41 ± 0.077
protein stability index [2]: 3.64 ± 0.42

NSSNSDIVHVEKEEVPEGMEEAAV [BCL2L13]
protein stability index [1]: 5.6 ± 0.14
protein stability index [2]: 5.61 ± 0.28

NTLVTKTMEDTLMTVKQYEAARLE [ARFIP2]
protein stability index [1]: 4.19 ± 0.3
protein stability index [2]: 4.55 ± 0.23

NTRNYEGQTPLAVSISISGSSRPC [ASB7]
protein stability index [1]: 3.23 ± 0.2
protein stability index [2]: 3.5 ± 0.27

NVAATGISQYEDDLPPPPADPVLD [APBB1IP]
protein stability index [1]: 5.36 ± 0.18
protein stability index [2]: 5.45 ± 0.19

NVFKELQIMQGLEHPFLVNLWYSF [STK32A]
protein stability index [1]: 2.74 ± 0.55
protein stability index [2]: 2.49 ± 0.53

NVKSEKVYTRHGVPISVTGIAQVK [FLOT1]
protein stability index [1]: 3.52 ± 0.13
protein stability index [2]: 3.65 ± 0.2

PAAPFDKKCGRENWTVAFAPDGSY [WSB1]
protein stability index [1]: 2.63 ± 0.33
protein stability index [2]: 2.86 ± 0.13

PALSQLVNLYLGRSHFLWKEPATM [TCF25]
protein stability index [1]: 3.25 ± 0.75
protein stability index [2]: 3.02 ± 0.9

PAPNKKRKSSKLIMELTGGGQESS [MYOZ1]
protein stability index [1]: 4.82 ± 0.19
protein stability index [2]: 4.73 ± 0.16

PCFKWYTSPWSECTKTCGVGVRMR [ADAMTSL2]
protein stability index [1]: 2.07 ± 0.17
protein stability index [2]: 2.33 ± 0.32

PDEEPMHYGNIMYDRRVIRGNTYA [RSPH3]
protein stability index [1]: 3.5 ± 0.27
protein stability index [2]: 3.41 ± 0.33

PEGKRVPKRLRCWEEEEDHEKERP [FANCE]
protein stability index [1]: 5.21 ± 0.25
protein stability index [2]: 5.26 ± 0.27

PEMYILKGGYKEFFPQHPNFCEPQ [CDC25B]
protein stability index [1]: 2.6 ± 0.46
protein stability index [2]: 2.84 ± 0.36

PEPRSEVVPARLKRASAPTFDNDY [RIPK4]
protein stability index [1]: 4.86 ± 0.47
protein stability index [2]: 4.63 ± 0.36

PFDQSGLGAEESLGLLDDYLEVAK [ATF4]
protein stability index [1]: 4.28 ± 0.28
protein stability index [2]: 4.62 ± 0.24

PFEPQALGLSPSWRLTGFSGMKG [SEPHS2]
protein stability index [3]: 2.51 ± 0.53
protein stability index [4]: 2.64 ± 0.25

PFRGDEGIFEESFIEERRQGLEQF [SNX12]
protein stability index [1]: 4.518 ± 0.041
protein stability index [2]: 4.42 ± 0.18

PFWEVLVRSTETVERDNMEEDNVE [HDAC6]
protein stability index [1]: 5.27 ± 0.086
protein stability index [2]: 5.27 ± 0.13

PGAGLRRPTYTPPSIMPQKHWVYV [ZBTB22]
protein stability index [1]: 2.26 ± 0.051
protein stability index [2]: 2.04 ± 0.27

PGKKKIRWDPVRRRFIQSCPIIRI [KLHDC10]
protein stability index [1]: 2.01 ± 0.29
protein stability index [2]: 2.1 ± 0.12

PGQGGPASTPAQTAAGGQGGPGGP [NR2F2]
protein stability index [1]: 5.25 ± 0.21
protein stability index [2]: 5.33 ± 0.37

PGRLTEALCLEVRPTYFEMKNEKL [RNF180]
protein stability index [1]: 4.9 ± 0.21
protein stability index [2]: 4.9 ± 0.15

PGSGSGPGPGSGPGSGPGHGSGSH [SPAG8]
protein stability index [1]: 5 ± 0.17
protein stability index [2]: 4.93 ± 0.18

PGSTSPLETSGNPNGRYGSGYLLA [SLC6A17]
protein stability index [1]: 3.44 ± 0.19
protein stability index [2]: 3.72 ± 0.33

PGVLKVLWLTASQPCSIVDVEFLP [LPCAT4]
protein stability index [1]: 3.08 ± 0.27
protein stability index [2]: 2.87 ± 0.99

PISQEKIESERALISQCGKPVVNV [DUSP5]
protein stability index [1]: 4.04 ± 0.55
protein stability index [2]: 3.91 ± 0.23

PKNPALEAFLAQFSQLEDKFPGQS [TOR1AIP2]
protein stability index [1]: 3.43 ± 0.1
protein stability index [2]: 3.64 ± 0.15

PLAMNYLDRFLSLEPVKKSRLQLL [CCND1]
protein stability index [1]: 2.23 ± 0.12
protein stability index [2]: 2.27 ± 0.14

PLLSGVAQEVSPCGPPSLGAVLAL [MFSD9]
protein stability index [1]: 2.4 ± 0.35
protein stability index [2]: 2.42 ± 0.18

PLNRFSSVPLDPMERPMSQADLEL [CBY2]
protein stability index [1]: 4.47 ± 0.18
protein stability index [2]: 4.53 ± 0.28
